Source: patent publication CN116554324A (SANYOU BIO INC, dated 2023)

Assays:
hu4-1BB-hFc = target: T1, hu4-1BB-hFc (human, UniProt Q07011 24-186); assay: ELISA
T1 construct: range 24-186; also called 4-1BB-Fc; not shown: human IgG1 Fc fragment fused at the C-terminus

生物素化的hu4-1BB-hFc = target: T2, 生物素化的hu4-1BB-hFc (human, UniProt Q07011 24-186, EZ-Link Sulfo-NHS-LC-biotin label; the sites are not stated); assay: ELISA
T2 construct: range 24-186; also called 生物素标记的hu4-1BB-hFc抗原蛋白; biotinylated hu4-1BB-hFc; not shown: human IgG1 Fc fragment fused at the C-terminus

[1] = target: T3, 人4-1BB (Uniprot编号Q07011), expressed on cells (human, UniProt Q07011 24-255); assay: flow cytometry on hu4-1BB-CHO cells
T3 construct: whole, on cells; also called hu4-1BB-CHO; 人4-1BB过表达细胞

hu4-1BB-His = target: T4, hu4-1BB-His (human, UniProt Q07011 24-186); assay: ELISA, hu4-1BB-His coated at 2 μg/mL, anti-human IgG Fc-HRP
T4 construct: range 24-186; Expressed in ExpiCHO and purified on Ni beads; also called 抗原蛋白hu4-1BB-His; 人4-1BB抗原蛋白; not shown: C-terminal His tag

Mus4-1BB-hFc = target: T5, Mus4-1BB-hFc (mouse; human, UniProt P20334 24-187); assay: ELISA, Mus4-1BB-hFc coated at 2 μg/mL, anti-human kappa+lambda-HRP
T5 construct: range 24-187; also called 鼠4-1BB抗原蛋白Mus4-1BB-hFc; not shown: Fc tag made by the same method as for hu4-1BB-hFc (human IgG1 Fc fragment)
T5 sequence (looked up): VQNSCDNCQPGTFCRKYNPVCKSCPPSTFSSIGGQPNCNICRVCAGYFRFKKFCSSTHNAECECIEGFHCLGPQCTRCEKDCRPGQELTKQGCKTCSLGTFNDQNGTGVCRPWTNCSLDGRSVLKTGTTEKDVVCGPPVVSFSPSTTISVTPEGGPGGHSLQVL

T3 sequence (Q07011 24-255): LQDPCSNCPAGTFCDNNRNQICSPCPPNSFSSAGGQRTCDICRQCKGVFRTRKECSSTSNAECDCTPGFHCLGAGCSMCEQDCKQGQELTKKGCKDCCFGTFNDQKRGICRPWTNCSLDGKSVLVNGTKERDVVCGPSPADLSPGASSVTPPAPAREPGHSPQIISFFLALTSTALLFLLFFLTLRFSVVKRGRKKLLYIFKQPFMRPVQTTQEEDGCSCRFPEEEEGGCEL

B1: Ag10058 (antibody, human IgG4 S228P, kappa, V domains shown)
VH: EVQLVESGGGLVQPGGSLRLSCAASGFSLSTSGVGVGWIRQAPGKGLEWLALIDWDDDKYYSPSLKSRLTISRDNSKNTLYLQLNSLRAEDTAVYYCARGGSDTVLGDWFAYWGQGTLVTVSS
VL: DIQLTQSPSSLSASVGDRVTITCRASQSVSPYLAWYQQKPGKAPKLLIYDASSLESGVPSRFSGSGSGTDFTLTISSLQPEDFATYYCQQGYSLWTFGQGTKVEIKR
notes: also called 阳性对照抗体Ag10058
hu4-1BB-hFc
  binding result: binds
生物素化的hu4-1BB-hFc
  binding result: binds

B2: Ag10131 (antibody, human IgG4 S228P, kappa, V domains shown)
VH: EVQLVESGGGLVQPGGSLRLSCAASGFSLSTGGVGVGWIRQAPGKGLEWLALIDWADDKYYSPSLKSRLTISRDNSKNTLYLQLNSLRAEDTAVYYCARGGSDTVIGDWFAYWGQGTLVTVSS
VL: DIQLTQSPSSLSASVGDRVTITCRASQSIGSYLAWYQQKPGKAPKLLIYDASNLETGVPSRFSGSGSGTDFTLTISSLQPEDFATYYCQQGYYLWTFGQGTKVEIKR
notes: also called 阳性对照抗体Ag10131; 对照抗体Ag10131
[1]
  binding result: binds
hu4-1BB-His
  binding result: binds
hu4-1BB-hFc
  binding result: binds
生物素化的hu4-1BB-hFc
  binding result: binds

B3: 99-2-17 (antibody, human IgG4 S228P, lambda, V domains shown)
VH: QVQLVQSGGGLVQPGGSLRLSCSASGFTFSSYAMHWVRQAPGKGLEYVSAISSNGGSTYYADSVKGRFTISRDNSKNTLYLQMSSLRAEDTAVYYCVKGSGWSPIDAFDIWGQGTMVTVSS
VL: QSALTQPPSVSGAPGQRVTISCTGSSSNIGAGYDVHWYQQLPGTAPKLLIYGNSNRPSGVPDRFSGSKSGTSASLAITGLQAEDEADYYCQSYDSSLSGSGAVFGGGTQLTVLG
notes: also called 抗体99-2-17; 母本抗体99-2-17
Mus4-1BB-hFc
  binding result: binds
hu4-1BB-His
  EC50: 0.411 µg/mL

B4: 99-2-35 (antibody, human IgG4 S228P, kappa, V domains shown)
VH: EVQLLESGGGLVQPGGSLRLSCAASGFTFSSYEMNWVRQAPGKGLEWVSYISSSGSTIYYADSVKGRFTISRDNAKNSLYLQMNSLRAEDTAVYYCARDFNGGYSYYPIAFDIWGQGTMVTVSS
VL: EIVLTQSPATLSLSPGERATLSCRASQSVSSYLAWYQQKPGQAPRLLIYDASNRATGIPARFSGSGSGTDFTLTISSLEPEDFAVYYCQQRSNWPPMYTFGQGTKLEIKR
notes: also called 抗体99-2-35; 母本抗体99-2-35
Mus4-1BB-hFc
  binding result: binds
hu4-1BB-His
  EC50: 0.35 µg/mL
